In IntAct's records for PubMed 11781565:

B1: Cell division cycle-related protein res1/sct1 (Schizosaccharomyces pombe (strain ATCC 38366 / 972)), P33520 (parent)
chain: MYNDQIHKITYSGVEVFEYTINGFPLMKRCHDNWLNATQILKIAELDKPRRTRILEKFAQKGLHEKIQGGCGKYQGTWVPSERAVELAHEYNVFDLIQPLIEYSGSAFMPMSTFTPQSNRKPTEAYRRNSPVKKSFSRPSHSLLYPYTSSNNMTSTSRMSGIHDALSLQSDFTRSPDMPSDSFTGSLHDIKASPFSSNNYAQSLLDYFLLPNTTQPPDFVYDRPSDWDVNAGIDEDGHTALHWAAAMGNLEMMHALLQAGANVVAVNYLQQTSLMRCVMFTMNYDLQTFEVVSELLQSAICMNDSFGQTVFHHIALLASSKSKMEAARYYMDILLQNLTATQSVDVAAQIINLQDDHGDTALLICARNGAKKCARLLLSFYASSSIPNNQGQYPTDFLSSKDMSFPENDDSPLNSKIEDNLIDNLKYPQSLDDHLSSKKPISYFSNKLTHQTLPNVFTQLSELSKCHEASLAEKQLTYNLAMEALEQTVRETETCQRLWNERTNNDENYLVNQREDLIHQCKKFLHTLKTARYYLETVQLHQLKKYVTYFSQIWSTDELADISETKNLVGHDTKTNRSSLSSKHEVDLFTAENEAAREKLVEQLCSLQAQRKQKINEILNLLSMGMYNTINTDQSGS
partner: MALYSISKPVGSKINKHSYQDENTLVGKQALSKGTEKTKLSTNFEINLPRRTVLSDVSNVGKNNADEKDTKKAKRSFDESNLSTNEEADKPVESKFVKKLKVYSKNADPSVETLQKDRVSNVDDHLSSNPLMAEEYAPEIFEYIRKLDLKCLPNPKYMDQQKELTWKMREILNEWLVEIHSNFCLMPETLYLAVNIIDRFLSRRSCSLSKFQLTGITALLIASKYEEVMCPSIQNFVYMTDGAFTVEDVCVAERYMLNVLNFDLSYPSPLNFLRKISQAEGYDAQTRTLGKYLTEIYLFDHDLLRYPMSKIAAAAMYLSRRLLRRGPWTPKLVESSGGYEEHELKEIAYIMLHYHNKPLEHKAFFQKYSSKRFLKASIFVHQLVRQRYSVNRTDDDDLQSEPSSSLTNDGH

Variants of: B1
Settings: with cg22_schpo cig2, P36630

Row | Variant | effect of a mutation on the interaction
1 | S130A | increasing interaction

Variants of: B1
Settings: with cg22_schpo cig2, P36630
Remark: another data set of the same source

Row | Variant | effect of a mutation on the interaction
2 | S130A | disrupting interaction
